Data set [1] can be described thus: Clearance of IV-injected I-Aβ from serum. The data set is classed as in vivo, CD-1 mice. As to conditions: linear regression, n = 7–10 per group. On the procedure:
All animal protocols were performed in an Association for Assessment and Accreditation of Laboratory Animal Care accredited facility and approved by the animal committee of the VA and St Louis University Medical Centers. Male CD-1 mice were purchased from Charles River and kept on a 12/12 hour light/dark cycle with food and water freely available. Mice at 6–8 weeks of age were treated with 3 intraperitoneal (IP) injections of 3 mg/kg LPS from Salmonella typhimurium (Sigma, St. Louis, MO, USA) dissolved in sterile normal saline over a 24-hour period as previously described. […]
In BSA/lactated Ringer’s solution 3 × 10^5 CPM of ^131I-Aβ and ^125I-albumin were prepared and injected together into the jugular vein of mice treated with LPS or saline. […] Blood was allowed to clot, spun at 5,000 g to separate serum from blood cells, and 50 μl serum was counted along with harvested tissues from liver and kidney in a gamma counter. The rate of I-Aβ tissue uptake was determined using multiple-time regression analysis. For this analysis, experimental clock time was re-expressed as exposure time to correct for clearance of I-Aβ from the blood. Exposure time was calculated from the formula: […]
Serum clearance was calculated by plotting the log serum CPM/50 μl versus experimental clock time. […]

Data set [2] is described as follows: Aβ uptake by liver and kidney, multiple-time regression analysis. The data set is classed as in vivo, CD-1 mice. As to conditions: IV, mean ± SEM, n = 7–10 per group. The method, then: All animal protocols were performed in an Association for Assessment and Accreditation of Laboratory Animal Care accredited facility and approved by the animal committee of the VA and St Louis University Medical Centers. Male CD-1 mice were purchased from Charles River and kept on a 12/12 hour light/dark cycle with food and water freely available. Mice at 6–8 weeks of age were treated with 3 intraperitoneal (IP) injections of 3 mg/kg LPS from Salmonella typhimurium (Sigma, St. Louis, MO, USA) dissolved in sterile normal saline over a 24-hour period as previously described. Briefly, the first injection was given in the morning, and the second and third injections were given at 6 and 24 hours following the first injection, respectively. All mice were studied at 28 hours following the first injection. […] No mice died as a result of this treatment regimen. A total of 225 mice were used in this study: 90 were used for detection of oxidative modifications to LRP-1 and Pgp measurement, 30 for LRP-1 measurement, 44 for measurement of Aβ and a2M vascular sequestration, 20 for CSF bulk flow measurement, 21 for measurement of peripheral Aβ clearance, and 20 for primary endothelial cell culture.
In BSA/lactated Ringer’s solution 3 × 10^5 CPM of ^131I-Aβ and ^125I-albumin were prepared and injected together into the jugular vein of mice treated with LPS or saline. The liver, the left kidney, and blood from the carotid artery were collected at 1, 2, 5, 10, and 20 minutes. Blood was allowed to clot, spun at 5,000 g to separate serum from blood cells, and 50 μl serum was counted along with harvested tissues from liver and kidney in a gamma counter. The rate of I-Aβ tissue uptake was determined using multiple-time regression analysis. For this analysis, experimental clock time was re-expressed as exposure time to correct for clearance of I-Aβ from the blood. Exposure time was calculated from the formula:
(5) Exposuretime=∫0tCpttdt/Cpt
where t equals experimental clock time, Cp represents the level of radioactivity in the serum over time and Cpt is the level of radioactivity in the serum at time t. Tissue/serum ratios were then calculated from the following formula:
(6) Tissue/serumratio=serumvolumetissueCPM/tissueweightserumCPM
To correct for alterations in vascular space and/or vascular permeability which occur with LPS administration, tissue/serum ratios for I-albumin were subtracted from those for I-Aβ. The corrected tissue/serum ratios were plotted against exposure time calculated for Aβ, and the unidirectional influx constant determined from the slope of the linear portion of the curve.

A further data set concerns murine BBB. As to conditions: compared with human Aβ1-42; cited from earlier work. The source says: In this study we have shown that peripheral administration of LPS inhibits CSF bulk flow, central and peripheral clearance of Aβ, and increases vascular sequestration of Aβ. […] Al ...
The mark [3] stands for this setting: LPS-treated mice (3 x 3 mg/kg IP, studied at 28 h), corrected for I-albumin.

No end group written: not given here.

As for “I-Aβ: Murine Aβ1-42 (Bachem) radioactively labeled with 125I or 131I by the chloramine-T method (DAEFGHDSGFEVRHQKLVFFAEDVGSNKGAIIGLMVGGVVIA; also: 125I or 131I radiolabel, residue not given here; UniProt P12023 672-713, looked up)”, the half-life in serum in data set [1] (LPS-treated mice (3 x 3 mg/kg IP at 0, 6, 24 h, studied at 28 h), IV injection, serum at 1-20 min) was determined as 8.4 min; in data set [1] (saline-treated mice, IV (jugular vein) injection, serum at 1, 2, 5, 10, 20 min, log serum CPM/50 μl vs time), 4 min. In addition, the “unidirectional influx rate of Aβ into kidney (Ki)” value in data set [2] (setting [3]) was 0.5608 ± 3.859 µL/g/min; in data set [2] (saline-treated mice, corrected for I-albumin), 41.26 ± 10.46 µL/g/min. Besides, the “unidirectional influx rate of Aβ into liver (Ki)” value was 8.356 ± 6.433 µL/g/min in data set [2] (setting [3]) and 34.67 ± 3.444 µL/g/min in data set [2] (saline-treated mice, tissue/serum ratio corrected for I-albumin vs exposure time).
As for “murine Aβ1-42: Murine amyloid beta 1-42 purchased from Bachem (DAEFGHDSGFEVRHQKLVFFAEDVGSNKGAIIGLMVGGVVIA; Amyloid-beta protein 42; UniProt P12023 672-713, looked up)”, the “rate of clearance across the murine BBB” value in the data set on murine BBB is “cleared at a faster rate across the murine BBB than human Aβ1-42”.

(Values after article PMC3410805, “Lipopolysaccharide impairs amyloid beta efflux from brain: altered vascular sequestration, cerebrospinal fluid reabsorption, peripheral clearance and transporter function at the blood–brain barrier” (Journal of Neuroinflammation, 2012).)
